From patent US12605458B2, “Antibody-drug conjugate having acidic self-stabilization junction” (priority 2017, dated 2026)

What was measured:
[1] = SEC-HPLC detection of degree of aggregation; format: physicochemical; details: 280 nm
Experimental: ADC samples obtained via conjugation were centrifuged at 14,000 rpm for five minutes and the supernatant was taken for analysis. Instrument: Waters e2695 (2489UV/Vis) Chromatography column: TSKgel G3000SWXL (7.8×300 mm, 5 μm) Mobile phase: A: 50 mM PB, 300 mM NaCl, 200 mM Arg, 5% IPA, pH 6.5 Mobile Phase A was eluted isocratically for 30 minutes; flow rate: 0.714 ml/min, column temperature: 25° C., detection wavelength: 280 nm.

[2] = Plasma stability in vitro (DAR by RP-HPLC after incubation in human plasma); format: in vitro ADME; details: 37° C.
Experimental: A fixed amount of ADC sample was added to human plasma for which human IgG had already been removed, with each ADC tube prepared in triplicate; next, incubation in a 37° C. water bath was performed for 0 hours and 72 hours, after which the ADC sample was removed and 100 μl of Protein A (MabSelect SuRe™ LX Lot: #10221479GE, washed with PBS) was added to each tube; adsorption was then allowed to proceed under agitation on a vertical mixer for two hours, followed by washing and elution to obtain incubated ADC; the plasma stability of each incubated ADC sample was then determined via RP-HPLC.

[3] = Hydrophobic interaction chromatography (HIC) assay; format: physicochemical; details: eight drug units per antibody, FIG. 4
Experimental: ADC analysis was performed using hydrophobic interaction chromatography (HIC). Elution was performed using 0 to 100% Mobile Phase B (MPB), where Mobile Phase A (MPA) consisted of 1.5 M ammonium sulfate and 0.025 M sodium phosphate, and MPB consisted of 0.025 M sodium phosphate and 25% isopropanol. The sample loading volume was approximately 20 μg, and gradient elution was completed in 15 minutes. 280 nm UV was used for detection, and the stronger the […] sample, the later the peak produced.
Following complete reduction of IgG1 antibody to 8 thiols per antibody according to General Procedure A, corresponding antibody-drug conjugates were prepared via non-specific coupling. ADCs with acidic stabilization junctions and conventional junctions ADC (i.e., MC-VC-PAB-MMAE) with eight drug units per antibody were further separated and purified via hydrophobic interaction chromatography and hydrophobic interaction chromatography (HIC) was used to perform an ADC analysis according to General Procedure C. ADCs with greater hydrophobicity, or larger drug/molecule ratios eluted at later retention times.

In the case of MC-VC-PAB-MMAE, the “Aggregation Rate” value [1] is reported as 32.46%, the “Monomer Ratio” value [1] is reported as 67.51% and the “0 h DAR” value ([2]; human plasma with human IgG removed, 0 hours, RP-HPLC) is reported as 7.2. The “72 h DAR” value ([2]; human plasma with human IgG removed, 72 hours, RP-HPLC) was 2.3, the “drug loss / change in DAR during plasma incubation (in words)” value ([2]; human plasma, 72 hours) was “very significant reduction in DAR” and the “HIC retention time (hydrophobicity, in words)” value [3] was “longest retention time”.
